Measurements: US20250195679A1, “ANTIBODY-DRUG CONJUGATE AND USE THEREOF” (SHANGHAI HUAOTA BIOPHARMACEUTICAL CO., LTD., priority 2022, published 2025)

B1: Antibody-drug conjugate 1: 900698 antibody cysteine-conjugated to SN-38 via Mc-VC-PAB-DMEDA-PEG linker, DAR about 7.8 (conjugate)
VH: QVQLVESGGGLVKPGGSLRLSCAASGFTFSKYAMSWIRQAPGKGLEWVAEISSGGGYINYADSVKGRFTISRDNAKNSLYLQMNSLRAEDTAVYYCARAIYYYGSSYNYYAMDYWGQGTTVTVSS
VL: DIQMTQSPSSLSASVGDRVTITCRASQDVGTAEAWYQQKPGKAPKLLIYWASTRHTGVPSRFSGSGSGTDFTLTISSLQPEDFATYYCQQYSSYPLTFGQGTKLEIK
B2: Antibody-drug conjugate 2: 900698 antibody cysteine-conjugated to SN-38 via MP2-VC-PAB-DMEDA-PEG linker, DAR about 7.8 (conjugate)
VH: B1 VH
VL: B1 VL

Assays:
[1] = system: BxPC-3 human pancreatic cancer cells; test: BxPC3 CDX pancreatic cancer mouse efficacy model; type: in vivo, NPG mice; conditions: for inhibition of growth of BxPC-3 pancreatic cancer: 1 mg/kg i.p. BIW, 6 doses, FIG. 7; for inhibitory effect on tumor growth compared with 900698, Oleclumab and Uliledlimab: conjugate 1 mg/kg vs antibodies 5 mg/kg, i.p. BIW
Method: NPG mice were used to establish a BxPC-3 pancreatic cancer animal model for assaying the efficacy of the test antibodies. The BxPC-3 human pancreatic cancer cells used in this example were incubated in an RPMI-1640 medium supplemented with 10% FBS in an incubator at 37° C. with 5% CO2. Before continuous cell culturing for ten generations, 100 μL of PBS containing about 1×10^7 BxPC-3 cells was mixed uniformly with an equal volume of Matrigel. The mixture was then inoculated by subcutaneous injection into 18 NPG mice on the right side of the back near the axilla, with an inoculation volume of about 200 μL. The mice were anesthetized with 2%-5% isoflurane prior to the inoculation. On the day of inoculation, 1.0×10^7 PBMCs (100 μL) were injected via the tail vein. When the tumors grew to an average size of about 50-80 mm^3, the 18 tumor-bearing mice were randomly divided into 3 groups of 6 based on tumor volume and body weight.
Oleclumab is an anti-CD73 monoclonal antibody developed by AstraZeneca, currently in Phase 2 clinical trials. Uliledlimab is an anti-CD73 monoclonal antibody developed by I-Mab Biopharma, currently in Phase 1 clinical trials. The amino acid sequence of the heavy chain of 900543 is as set forth in SEQ ID NO. 45, and the amino acid sequence of the light chain of 900543 is as set forth in SEQ ID NO. 46. The amino acid sequence of the heavy chain of Oleclumab is as set forth in SEQ ID NO. 47, and the amino acid sequence of the light chain of Oleclumab is as set forth in SEQ ID NO. 48. The amino acid sequence of the heavy chain of Uliledlimab is as set forth in SEQ ID NO. 49, and the amino acid sequence of the light chain of Uliledlimab is as set forth in SEQ ID NO. 50.

[2] = system: MDA-MB-231 human breast cancer cells; test: MDA-MB-231 triple-negative breast cancer CDX mouse efficacy model (Example 8); type: in vivo, NPG mice; conditions: for inhibition of growth of MDA-MB-231 breast cancer: 2.5 and 5 mg/kg i.p. BIW, 8 doses, FIG. 8; for relation of anti-tumor effect to administration dose: 2.5 vs 5 mg/kg i.p. BIW; for inhibitory effect on tumor growth compared with 900698 and Oleclumab: antibodies at 5 mg/kg, i.p. BIW
Method: NPG mice were used to establish an MDA-MB-231 triple-negative breast cancer animal model for assaying the efficacy of the test antibodies. The MDA-MB-231 human breast cancer cells used in this example were incubated in an L-15 medium supplemented with 10% FBS in an incubator at 37° C. without CO2. Before continuous cell culturing for ten generations, about 5.0×10^6 MDA-MB-231 cells were suspended in 100 μL of PBS and then mixed uniformly with an equal volume of Matrigel. The mixture was then inoculated by subcutaneous injection into NPG humanized mice on the right side of the back near the axilla, with an inoculation volume of about 200 μL. The mice were anesthetized with 2%-5% isoflurane prior to the inoculation. On the day of inoculation, 1.0×10^7 PBMCs (100 μL) were injected via the tail vein. When the tumors grew to an average size of about 50-80 mm^3, the […] tumor-bearing mice were randomly divided into 7 groups of 6 based on tumor volume and body weight. […] Oleclumab is an anti-CD73 monoclonal antibody developed by AstraZeneca, currently in Phase 2 clinical trials. The amino acid sequence of the heavy chain of 900201 is as set forth in SEQ ID NO. 43, and the amino acid sequence of the light chain of 900201 is as set forth in SEQ ID NO. 44.

Row | Molecule | inhibition of growth of BxPC-3 pancreatic cancer [1] | inhibitory effect on tumor growth compared with 900698, Oleclumab and Uliledlimab [1] | inhibition of growth of MDA-MB-231 breast cancer [2] | relation of anti-tumor effect to administration dose [2] | inhibitory effect on tumor growth compared with 900698 and Oleclumab [2]
1 | B1 | significantly inhibit the growth | superior | significantly inhibit the growth | positively correlated with the administration dose | significantly superior
2 | B2 | significantly inhibit the growth | superior | significantly inhibit the growth | positively correlated with the administration dose | significantly superior
